± gives the standard deviation of the averaged measurements.

The values below come from the supplement of paper PMC6757056.

The labels stand for the following.
B1: library; a variant is named by its letters at N, in order (parent)
chain: GCUGUCACCGGAAUACCAGCAUCGUCUUGAUGCCCUUGGAAGUCCGGUCUGAUGAGUCCNNNNNGGACGAAACAGC

Data set [1] covers variants of B1. The data set can be described thus: FACS-Seq fitted mean relative fluorescence mCherry/BFP without ligand (log10 relative fluorescence); higher = higher reporter protein expression. As to conditions: HEK293T, ligand present: no. In outline:
(§1)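 Fluorescence comes from a normal fit to bin counts, normalized against controls. HEK293T libraries lentivirally given a ribozyme-switch mCherry reporter and an EF1α-BFP marker were enriched, incubated 48 h with or without ligand, and sorted by mCherry/BFP into 6 bins. Bin genomic DNA was PCR-amplified, barcoded and sequenced on MiSeq. The log10(mCherry/BFP) mean was scaled to five spiked-in control ribozymes.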

The variants in data set [2] derive from B1. The data set can be described thus: normalized RNA/DNA level with ligand (relative to sTRSVctl = 100) (log10 (% of sTRSVctl)); higher = less ribozyme self-cleavage, higher mRNA level. The conditions noted are these: ligand concentration (+) RNA-Seq: 5 mM, HEK293T, reporter: mCherry (pCS4076), ligand present: yes. The gist of the method:
(§2)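 Total RNA, extracted with EDTA 72 h after HEK293T cells were transfected with 4 µg per 6-well well of reporter-linked ribozyme switch library plasmids, was reverse-transcribed, amplified, barcoded and sequenced. Ligand, if used, was added 1 h before transfection. RNA level was derived from RNA reads divided by DNA reads and normalized to a spiked-in non-cleaving sequence or to the top sequences. This was multiplied by 100 and log10-transformed, with the top set of 25 sequences and a ≥100 DNA read minimum.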

The variants in data set [3] derive from B1. The data set is described as follows: normalized RNA/DNA level without ligand (relative to sTRSVctl = 100) (log10 (% of sTRSVctl)); higher = less ribozyme self-cleavage, higher mRNA level. The conditions noted are these: HEK293T, reporter: mCherry (pCS4076), ligand present: no. In outline:
as §2

In data set [4] the parent is B1. The data set can be described thus: FACS-Seq fitted mean relative fluorescence mCherry/BFP with ligand (log10 relative fluorescence); ligand concentration (+) FACS-Seq: 1 mM; higher = higher reporter protein expression. As to conditions: HEK293T, ligand present: yes. In outline: as §1

Consider GCUGUCACCGGAAUACCAGCAUCGUCUUGAUGCCCUUGGAAGUCCGGUCUGAUGAGUCCUUCGUGGACGAAACAGC [UUCGU], for which the “FACS-Seq fitted mean (log10)” value in data set [1] stood at 0.93 ± 0.0046; in data set [4], 0.939 ± 0.067. Also, the “normalized RNA/DNA level with ligand (log10)” value in data set [2] is 2.08 ± 0.14. In data set [3], the “normalized RNA/DNA level without ligand (log10)” value turned out to be 2.02 ± 0.059.

Regarding GCUGUCACCGGAAUACCAGCAUCGUCUUGAUGCCCUUGGAAGUCCGGUCUGAUGAGUCCUUCCGGGACGAAACAGC [UUCCG], the “FACS-Seq fitted mean (log10)” value in data set [1] is 0.818 ± 0.089; in data set [4], 0.751 ± 0.086. Moreover, the “normalized RNA/DNA level with ligand (log10)” value in data set [2] was 2.02 ± 0.032. Also, the “normalized RNA/DNA level without ligand (log10)” value in data set [3] worked out at 2.017 ± 0.01.

Regarding GCUGUCACCGGAAUACCAGCAUCGUCUUGAUGCCCUUGGAAGUCCGGUCUGAUGAGUCCCUCCUGGACGAAACAGC [CUCCU], the results for the “FACS-Seq fitted mean (log10)” value in data set [1] and in data set [4] were 0.814 ± 0.015 and 0.682 ± 0.033, respectively. In data set [2], the “normalized RNA/DNA level with ligand (log10)” value was determined as 2.005 ± 0.011. Moreover, in data set [3], the “normalized RNA/DNA level without ligand (log10)” value came out at 1.88 ± 0.098.

As to GCUGUCACCGGAAUACCAGCAUCGUCUUGAUGCCCUUGGAAGUCCGGUCUGAUGAGUCCAUCGAGGACGAAACAGC [AUCGA], the entries for the “FACS-Seq fitted mean (log10)” value in data set [1] and in data set [4] were 0.863 ± 0.17 and 0.825 ± 0.13, respectively. The “normalized RNA/DNA level with ligand (log10)” value in data set [2] came out at 2.02 ± 0.087. For the same variant, in data set [3], the “normalized RNA/DNA level without ligand (log10)” value stood at 1.76 ± 0.19.

As for GCUGUCACCGGAAUACCAGCAUCGUCUUGAUGCCCUUGGAAGUCCGGUCUGAUGAGUCCAUCGGGGACGAAACAGC [AUCGG], the results for the “FACS-Seq fitted mean (log10)” value in data set [1] and in data set [4] were 0.827 ± 0.073 and 0.782 ± 0.12, respectively. Further, the “normalized RNA/DNA level with ligand (log10)” value in data set [2] stood at 1.91 ± 0.11. In data set [3], the “normalized RNA/DNA level without ligand (log10)” value is 1.87 ± 0.051.

Turning to GCUGUCACCGGAAUACCAGCAUCGUCUUGAUGCCCUUGGAAGUCCGGUCUGAUGAGUCCAUCGCGGACGAAACAGC [AUCGC], the “FACS-Seq fitted mean (log10)” value in data set [1] stood at 0.925 ± 0.082; in data set [4] it was 0.889 ± 0.11. Further, the “normalized RNA/DNA level with ligand (log10)” value in data set [2] turned out to be 1.977 ± 0.017. Also, the “normalized RNA/DNA level without ligand (log10)” value in data set [3] worked out at 1.92 ± 0.11.

For GCUGUCACCGGAAUACCAGCAUCGUCUUGAUGCCCUUGGAAGUCCGGUCUGAUGAGUCCAUCGUGGACGAAACAGC [AUCGU], the “FACS-Seq fitted mean (log10)” value came to 0.902 ± 0.057 in data set [1] and 0.848 ± 0.063 in data set [4]. Also, the “normalized RNA/DNA level with ligand (log10)” value in data set [2] turned out to be 2.03 ± 0.13. Also, in data set [3], the “normalized RNA/DNA level without ligand (log10)” value is 1.93 ± 0.042.

As for GCUGUCACCGGAAUACCAGCAUCGUCUUGAUGCCCUUGGAAGUCCGGUCUGAUGAGUCCGUCCUGGACGAAACAGC [GUCCU], the “FACS-Seq fitted mean (log10)” value in data set [1] worked out at 1.16 ± 0.13; in data set [4], 1.13 ± 0.12. Further, the “normalized RNA/DNA level with ligand (log10)” value in data set [2] was 2.03 ± 0.052. Further, the “normalized RNA/DNA level without ligand (log10)” value in data set [3] was found to be 2 ± 0.1.

Consider GCUGUCACCGGAAUACCAGCAUCGUCUUGAUGCCCUUGGAAGUCCGGUCUGAUGAGUCCCUCGAGGACGAAACAGC [CUCGA], for which the “FACS-Seq fitted mean (log10)” value in data set [1] came out at 0.868 ± 0.018; in data set [4], 0.883 ± 0.1. Further, the “normalized RNA/DNA level with ligand (log10)” value in data set [2] turned out to be 2.04 ± 0.076. The “normalized RNA/DNA level without ligand (log10)” value in data set [3] was 1.95 ± 0.12.
